According to the DeepSol protein solubility set:

Experiment: soluble on expression in E. coli; label from the status in PepcDB or PDB records

Row | Sequence | soluble on expression in E. coli
1 | MSSTAEEMAAAFEQTGGPDLTTGSGKRTKSDRVEHKHASQPGGDTRKVVQTASNGEAKRKEK | not soluble
2 | MSLLNIIRLLAESLPRISDGNENTDVWVNDMKFKMAYSFLNDDIDVIERELEQTVRSDYPLLSEAGLHLLQAGGKRIRPVFVLLSGMFGDYDINKIKYVAVTLEMIHMASLVHDDVIDDAELRRGKPTIKAKWDNRIAMYTGDYMLAGSLEMMTRINEPKAHRILSQTIVEVCLGEIEQIKDKYNMEQNLRTYLRRIKRKTALLIAVSCQLGAIASGADEKIHKALYWFGYYVGMSYQIIDDILDFTSTEEELGKPVGGDLLQGNVTLPVLYALKNPALKNQLKLINSETTQEQLEPIIEEIKKTDAIEASMAVSEMYLQKAFQKLNTLPRGRARSSLAAIAKYIGKRKFEGHHHHHH | not soluble
3 | MEKGWKRADLHVHTTCSFDVLPAKDLNPLSLYEKSLEIGMDFVTFTDHDTVEAYEILGWDREKLTPGAEMTLYDPEFAGHTLHINVFELDREYFSELREIAEIEHDLKSFTGYLKRHRLPFVYNHPFWFEFHRQPNPSAVPKLAKLFPVLEYNMHELKQKNELTIALAERFGKSIVATTDTHTGKMGQVYTLAKGDSFREYFRNIEKGRNYIVTGDLTRELLIEEMNTWIDLIFEKSQKNRDIKNYLTGIKSLDALVKISRSTLLNYSPRLNRTAMNLFYMISNTGLPASFYIHSEKSFAREIEKDIEINNRK | not soluble
4 | MSKLDTIFEVVISRDKMEATLKQHEPFPEDHPVTKDELLSFMKEHGVVFGVKESVIDQVVKSEKGLTSSVKVAEGLQPQNGKHGYLQPIQHEEEERDVHSISAMNLRDVLSIPEVKQGQVIGKKIPATLGEDGMNVLGEPIKAKPGREFVLRPGKNSTVDEANGTLVAAVDGQMSVDKRTIHVYPVYEVPGDLTMKHGNISFIGNVIIRGHVPDGFVVKAGGDIRVFGTVEGATLEAGGSIFVGAGIVGQNRGCIRAEGGLHTTFINQAKVEVGGDIEVVQSILHSTCTAGGKIICTRGKGNIVGGALSAEDHIYAKEIGNSMHTKTSLYIGAKEKWVTKEKQLAKEYKTTEEELKKLSLLLQKFQELEKENGLTANGRVQRLRVKNTLVQVKEKHEQIKEQLEDVQENLTLNQAGSIVVEQTLYPNVSAHFGKYRRKIVSNHSNVKLSLVDQEIQLSSRLEHHHHHH | soluble
5 | MAQIVRQSKFRHVFCKPVKHESCMSDIRVTEITWDSLFCDVNPKFIAFINRGAGGPFMVIPVNKIGRVDKDYPFVDAHKAPCLEVAWSPFNDNVIASCSEDTTCKVWVIPDRGLNRNLSEPAVELTGHQKRVNTIAWHPVANNVLLTAGGENVMFMWNVGTGEALLEISGHPDQIWSINFNFDGSQFVTTCKDKKIRILDSHTGEVVHEGMGHEGVKPQRAIFVKDGLILSTGFTKRSERLYALRAPEDLSTPIVEEELDTSNGVVFPFYDEDSGLVYLVGKGDCAIRYYEVNNDAPYVHYINTYTTNEPQRAVGFQSKRGMSSEENEINRIYKLTTKGVVDILQFFVPRKSDLFQHDLYPDTRSTIPALTAEEFMEGKNAAPNRQPVNAAAAAAAAKPKVQVAKKANILSTLAPTAAESVPTQSYSERPPSSQQPSPRPSASPRPRPVVDDDMGIVTMREAPPSRPASSRASRTEIPPKEESKVDPMKPKQAVQLKSRAARDEPGGGAQTAGQRRAAAELERIKRDQSRTADEDNTLAPPPSSSRASASPRGSVSAASDHVPQNMDELLEDLMKMKAVLRQHERRIRMLEEEIADRNMSNAYSF | not soluble
6 | MAHHHHHHMQGTGSAKSFLEKLKSGRTTSAAIDNNAPPDGDGVILRRVERQYASEPLSALGLKLTEDAEVLSTEVGSPAAKSNIPLHYMIIAVNNQFVGSRADFEDIAAQLLTLVIKLQSTAAMSELLANILNEEEKNFNENGDSCIDVNELLRTTPRYGFLSAEHPMFLRWNQRLQTQREARQLIRQATREAEEQQAKEALEALRRVADAEDEIQQQQAQQERQHQQMLRQGPETVNPSAPEAGARPGGEVLLKQVQDESTFGESNVNNEGFEESPEEASPEELLKLIGAEPVETEVVQHVDADEPTEVRFFINPTEEYALSNGTRVTISVKKRSGPIPKPPPGKPPKGIEKADDKQAQ | not soluble
7 | MHQVISATTNPAKIQAILQAFEEIFGEGSCHITPVAVESGVPEQPFGSEETRAGARNRVDNARRLHPQADFWVAIEAGIDDDATFSWVVIDNGVQRGEARSATLPLPAVILDRVRQGEALGPVMSQYTGIDEIGRKEGAIGVFTAGKLTRSSVYYQAVILALSPFHNAVYR | soluble
8 | MYEVTKFGGEGKRLEDYREIIGDEALEAIKAKAENLKDKSFVHVNSTSFGGGVAEILHNLVPLMRDVGIDARWFVIEGTNEFFNVTKSFHNALQGNKELRLTEEMKKLYLEINKKNAEDIDLTQFDYVLIHDPQPAPLIEFYEKRQPWIWRCHIDLSDPNLEFWKFLRQFVEKYDRYIFHMEEYVQEDLNQEKVVIMPPSIDPLSEKNMELEHHHHHH | not soluble
9 | MSEENRVGSKIRQLREARDMTVEELAEASQSSSELIQQLENGALVPSLTPLLKIARALGVRLGTFLDDMPQSGPVLVRSGLSENVVRFSGKTERPKKSALEFYSLASDKADRHMEPFIIDIHPSPEESHTLSSHEGEEFIYVLSGEIEIFYGKDVHRLSEGDSIYYDSIVPHDVHAAGKEDARIMAVVYAPL | not soluble
10 | MFPLFPNPQTRRTMSVLSEQVDGRPPQPPSGRRGKRWLRAIAAGALLAAGGGASTQPVAQQAPQSHARKVKVLIISMFAPEAQPWIDKLGLTQAVPVPGLSIDYPSVHCNASDVCQLTTGMGKANAASSVSALIHSGQFDLSRAYFLVAGIAGIDPSQGTLGTAAWARYLVDSDLAWEIDAREVPADWPNGFIGINTQGPGQKPPLNYKTEIFRVNEALLQKALALSKGAVLDDNATARAYRANYPSAPANQPPAVVQCDTAAGNTYWHGALLGQREAAWVKLLTDGQGTYCTTQQEDNATFEALTRGSKAGLLDLQRVAVLRTASNFDRPYPGQTPYDSLVGSNSGGFVPSLNNLYLAGGPLVNDIVTRWSVWKHGVPSPLEHHHHHH | not soluble
11 | MVATLIIIRGNSASGKSTIAKQLQAELGENTLLLSQDYLRREMLGTKDGENTTTIPLLINLLNYGYHNCSYIILEGILRSDWYTPVWKHILKHNPNNTYAYYYDLSFQETVKRHSTR | not soluble
12 | MSLINLDVWIDLTNAPHVHYFCQLIKKFEKEGIEYLLTFRDSGNLAKLVEIYNFVGKCIGKHGNTLKDKLIFYAERVIGLTELISNVKPKVAIAKHSVELPRVAFGLNIPVIFVVDNEHAEAQNKLTLPLADEIIKPIATDENKLKEFGGRNFISFEGTCEVANVNSRLKGYYPIDNEILKKLGICDDNPTIVMRPCPNSSYCNGHKDILPKIIEKLQKRIDCNIVVFPRDEHQKEIYREVNAIVPKETIDALSLLYNSDFMIGAGGTMNRESAILGIPTVSCYPQELLGVDKYLIEKDRMIHTNDIKEIINYVEDNLGKRMGVIELEDPTDLMFERVCNYLKEGHHHHHH | soluble
13 | MITSPFERELKLLNEGELGIVQQLVESSNIGFIVDLELDGDYGWAVYKPELGEQPLWDFPPGLYKRERAAFVISEFLGWNIVPPTVIMHDAPAGVGSVQWFIENNGEHYFPLFDTRADLHPQFVRMAVFDLLCNNTDRKAGHVLLDGDHIWGIDHGLCFSVEPKLRTVIWDFAGCTIPDDLVTDVEQLLEDVPEELHQLLHPAEIDALQRRASRISRLPFLPQAKSHRQFPWPLVLEHHHHHH | soluble
14 | MGHHHHHHSHMTITSGSSLPDGCEGRGLSVHTDMASVTKAMAAPESGLEVRDRMWLKITIPNAFLGSDVVDWLYHHVEGFPERREARKYASGLLKAGLIRHTVNKITFSEQCYYVFGDLSGGC | soluble
15 | MLLDKLSRPLKVLRISLTDRCNLRCNFCMPPGKEYNFLPKRQLLTPEEIEEYVKIFAKLGVEKVRLTGGEPLLREDLEEIIQRISKVEGIKDIALTTNGVFLKERLKALKEAGLKRITVSVHSLNPEKNQKLVNRSVNLGEVFEVIIRAKELGFKVKVNSVIIKGFNDDEILDLARFFKNLGVTLRFIEYMDVGTVNDWDFSKVVSADEILNLMKKEFTFYPLPKRPEDTSMDFIYEDGNKFGIIASVTKPFCRGCNRIRLSADGKLYTCLFSDKGHDLRNAVDKENFIKEVWKDRKDRYSELRRQMKRERKVEMFKVGGLEHHHHHH | not soluble
16 | MANLTRRQWLKVGLAVGGMVTFGLSYRDVAKRAIDGLLNGTSGKVTRDRIFGNALIPEAQAQTHWQQNPQQTIAMTQCFGCWTQCGIRARVNADGKVIRIAGNPYHPLSQEHPIDSSVPFSEAMEQLAGESGLDARSTACARGATLLESLYSPLRLLEPMKRVGKRGEGKWQRISFEQLIEEVVEGGDLFGEGHVDGLRAIHAPDTPIDAKHPSFGPKTNQLLVTNTSDEGRDAFLRRFALNSFGSKNFGAHGAYCGLAYRAGSGALMGDLDKNPHVKPDWENVEFALFMGTSPAQSGNPFKRQARQLASARLRENFQYVVVAPALPLSTVLADPRGRWQPVMPGSDSALAMGMIRWIMDNQRYNADYLAIPGVQAMQQAGEQSWTNATHLVIADELPTLAGQHLTLRHLTPDGEETPVVLNTDGELVDASTCRQARLFVTQYVTLADGQRVTVKSGLQRLKEAAEKLSLAQYSEQCGVPEAQIIALAETFTSHGRKAAVISHGGMMAGNGFYNAWSVMMLNALIGNLSLSGGVFVGGGKFNGVSDGPRYNMNSFAGKVKPSGLSIARSKTAYEASEEYRDKIAGGQSPYPAKAPWYPFVAGQLTELLTSALEGYPYPLKAWISNMSNPFYGVPGLRAVAEEKLKDPRRLPLFIAIDAFMNETTALADYIVPDTHNFESWGFTAPWGGVASKATTARWPVVAPATHRTADGQPVSMEAFCIAVAKRLHLPGFGDRAITDPQGNTFPLNRAEDFYLRVAANIAFMGKTPVALANQEDISLTGVSRILPAIQHTLKADEVGRVAFIYSRGGRFAPEDSGYTEQRLGNAWKKPLQIWNADVAAHRHAITGERFSGCPVWYPARLSDGRAIDDQFPIGQWPLKLISFKSNTMSSSTAVIPRLHHVKPANLVALNPQDGERYGLQHGDRVRIITPGGQVVAQISLLNGVMPGVIAIEHGYGHREMGATQHSLDGVPMPYDPQIRAGINLNDLGFADPTRTITNTWLDWVSGAAVRQGLPAKIERI | not soluble
17 | MATLIYVDKENGEPGTRVVAKDGLKLGSGPSIKALDGRSQVSTPRFGKTFDAPPALPKATRKALGTVNRATEKSVKTKGPLKQKQPSFSAKKMTEKTVKAKSSVPASDDAYPEIEKFFPFNPLDFESFDLPEEHQIAHLPLSGVPLMILDEERELEKLFQLGPPSPVKMPSPPWESNLLQSPSSILSTLDVELPPVCCDIDILEHHHHHH | not soluble
18 | MLKQTFLLSALLFGLSACQSTDVAKQDTVPLQGSWHIEAVQGQPTVDYSPAQITFDAEGKISGNNSCNNFFGQYSQQGQELKIIPGGSTMKACVDALMQQEHKVMQALPLVAKAKLVEGRLTLLSSDDKAVFVLSQLK | soluble
19 | MDVFNRNAERYDAWYDRNRELYEAELELLPKPISPSVEVGVGTGRFAVIGIDLGVDVSLQMLRIAKKRGVECVAGDAAHLPFKDKSFRSAYLIFTLCFLDEPIKALMEIKRVLEGTLVACVVPANSGLGREYSGKDSSFYRKARFLTEDEVLSMLRETGFKVKEIRRRKLKYDENDFVCFIAES | not soluble
20 | MIRLIGMEDGKTLEDLVKTKIATDTKHKPRKDAVLCSEMFLSASPEYFRPHDPSLAGEWNDERMVLFAKASITWLKTNYGDKCVRAELHLDEATPHIHAYIVPINDKTKLLSHKEMFGGDGRVGSIKLSKLQDSYAQALAPLGIERGVKGSKATHTKVKEYYQAVNSEPLTAVWSNQKLEHHHHHH | not soluble
